17 sequences from the DeepSol protein solubility set can be followed below.

The nature of this data set: soluble on expression in E. coli; label from the status in PepcDB or PDB records.
Turning to “MLELDTRQIRMGQRAADKAEALRLLGAALVADGLAAPGYAEGLKAREAQGSTYLGQGIAIPHGTPDTRELVFSTGVRLLQFPEGVDWGDGQQVYLAIGIAAKSDEHLQLLQLLTRALGEADLGPALSAAASAEEVLGLLQGAPQELALDAQLVGLGQNAEDLDELAWLGARLLKKAGCVENGFAAVLQQTEPLPLGDGLCWLHSEQLVKRPGLAFVTPAQPLQHQGQLVTGLFCLASLGEAHQALLERLCDLLLEGRGAELVRATSSRSVLAALGGELPPDWPSARAVLANPHGLHARPAQALAQLAKGFAGEIRVRLADSEAAPVSAKSLSKLLALGARRGQTLEFSAEPAIAEDALPALLAAVREGLGEEVEALAEEALPDAVGEAEEDARPAPLRAGERLQAIAASPGIASGPAHVQVAQRFEFQPRGESPAHERERLLRAKRAVDEEIVGLVERSTVKAIREIFVTHREMLDDPELAEQVQLRLNRGESAEAAWSRVVEDSAAQQEALHDALLAERAADLRDLGRRVLARLCGVEAPREPEQPYILVMDEVGPSDVARLDAQRVAGILTARGGATSHSAIIARALGIPALVGAGAAVLGLEPGTALLLDGEHGWLQVAPSTEQLQQAAAERDARQQRQARADAQRLEPARTRDGHAVEVCANLGDTAGAARAVELGAEGVGLLRTEFVFMNNARAPDLATQEAEYRRVLDALDGRPLVARTLDVGGDKPLPYWPIPHEENPYLGLRGIRLTLQRPQILETQLRALFRAAGERPLRVMFPMVGSLDEWRQARDLALRLREEIPLADLQLGIMVEVPSAALLAPVLAREVDFFSVGTNDLTQYTLAIDRGHPSLSAQADGLHPAVLQLIDMTVRAAHAEGKWVGVCGELAADPLALPLLVGLGVDELSVSARSIALVKAGVRELQLVAARGLARKALGLASAAEVRA”, the “soluble on expression in E. coli” value is given as “not soluble”. As for “MQLNMMLENRDYTLVIDHSASMAKPDGNSENSKWQAIQESTFALARKCEEFDSDGITVYLFSKTFQRYDYVNSAKVKQLFAENSPSETTNLVGVLQDAINSYFQRKSLGKTKPAGEVILVITDGAPVDSQAVCEVIIKATHLVESANELRISIIQVGSDSHATKFLKALDDHLQSVGAKFDICDTITLDELEITNLSDVLMKAITDLEHHHHHH”, the entry is “soluble”; as for “MAHHHHHHMAEEGSGLHQFWNTQPVPQSSIDAADTVGPLEAAGTVDDVPTDPVAIASTLEWWSPDMDNKDDVRAIYELLRDNYVEDVESMFRFNYSEDFLRWALTPPGYHSSWHVAVRRKRDQMLMGFVSGIPVTMRMGAPKKVLQKNKTTEEKEQGPEEKNNDHKSQAEELYLEPRKICEINFLCVHKLLRAKRLAPILIKEVTRRVHLMNIWQAVYTAGRLLPTPFATADYYHRSLNPEKLVAVGFSAIPQQYQKFQNPLSMIKRFYELPAKPKTRGLRPMEPKDAPQVANLLRKKLATCDVAPVFTDEEVAHYTLPREGVLMSYVVEREVSGGGGGGRVDSSRGKQNDAGTQKQITDFFSFFSLPSSIIGSSKHSVLNAAYVFYSANTTISLVHLMSDLLIVAHQQGFDVCNVVNIMDNGDYLSELKFGRGDGNLHYYFYNWSYPIVQPSDVGLFML”, “not soluble”. As for “MGSDKIHHHHHHMITSDELTENLSPFELSLFLEKKLHEENHNLETLLNAGRGNPNWTAPTPREAFFLLGQFATKETLREGSEQTAGMIQPSFGRTQRFLNFLAENPSKGATFLQEIWTAEHNYFGMDKEMWLDAMLDYVIGDNYPNPVRCLKACEQPIKAYLNQELFSSEAQPFDIFAVEGGTAGICYLFDTLANNYLLEKGDRIALLLPTFAPYLEIPELPRYDFDVVKIKAEQMIIDGKTTYQYSNKEIDKLKDPSIKAVFVVNPSNPTANAMGKPTIEQIKQISAVDNPKLMILTDDVYGTFVPAFRSLFTELPYNTACIYSYSKYFGATGWRVGTIAVSQENIFDQLLKELPVARKMELQARYATLNADTSQINFISRLVADSRDIALNHAAGLSSIQQAMMALFSLYALLKDGQAYKDEVMDICHTREKLLFRTLGIEEPLASLNTAYYCEINFRDWTEKRYGPEFSSYLTKSWTITKVLTSLAEKEKLMLLKADAFGSDKWSVRISLANLATNQYSEVGKRMIRLSEHIKEEWLRQKRQAIK”, the entry is “not soluble”; as for “MKLNIRAQTAQNQHNNSPIVLVHGLFGSLDNLGVLARDLVNDHNIIQVDVRNHGLSPREPVMNYPAMAQDLVDTLDALQIDKATFIGHSMGGKAVMALTALAPDRIDKLVAIDIAPVDYHVRRHDEIFAAINAVSESDAQTRQQAAAIMRQHLNEEGVIQFLLKSFVDGEWRFNVPVLWDQYPHIVGWEKIPAWDHPALFIPGGNSPYVSEQYRDDLLAQFPQARAHVIAGAGHWVHAEKPDAVLRAIRRYLNDH”, “soluble”; as for “MTVSPSYDAIVIGSGIGGLVTATQLVSKGLKVLVLERYLIPGGSAGYFEREGYRFDVGASMIFGFGDRGTTNLLTRALAAVGQALETLPDPVQIHYHLPGGLDPKVHREYEAFLQELIAKFPQEAQGIRRFYDECWQVFNCLNTMELLSLEEPRYLMRVFFQHPGACLGLVKYLPQNVGDIARRHIQDPDLLKFIDMECYCWSVVPADLTPMINAGMVFSDRHYGGINYPKGGVGQIAESLVAGLEKFGGKIRYGARVTKIIQENNQAIGVELANGEKIYGRRIVSNATRWDTFGALTGDQPLPGKEKRWRRNYQQSPSFLSLHLGVEADLLPEGTECHHILLEDWDDLEKEQGTIFVSIPTLLDPSLAPDGYHIIHTFTPSWLESWQNLSPQEYEAKKEADSGKLIDRLEAIFPGLDRALDYMEIGTPRSHRRFLGRQNGTYGPIPRRRLPGLLPMPFNRTAIPGLYCVGDSTFPGQGLNAVAFSGFACAHRLAVDLGVRLEHHHHHH”, “not soluble”. With “MSGNRGGSYISGIVPSFKERRPFHERQKDVEEIRSQQPNKVPVIIERFDGERSLPLMDRCKFLVPEHITVAELMSIVRRRLQLHPQQAFFLLVNERSMVSNSMSMSNLYSQERDPDGFVYMVYTSQPAFG”, the “soluble on expression in E. coli” value is “not soluble”.

On to “MKNIATGGVLERIRRLAPPHVTAPFRTVAEWREWQLAEGQKRCEEINRQNRQLRVEKILNRSGIQPLHRKCSFANYQVQNDGQRYALSQAKSIADELVTGCTNFAFSGKPGTGKNHLAAAIGNRLLKDGQTVIVVTVADVMSALHASYDDGQSGEKFLRELCEVDLLVLDEIGIQRETKNEQVVLHQIVDRRTASMRSVGMLTNLNYEAMKTLLGERIMDRMTMNGGRWVNFNWESWRPNVGQPGIEK”, for which the “soluble on expression in E. coli” value is on record as “soluble”.

In the case of “VRSYLLRIELADRPGSLGSLAVALGSVGADILSLDVVERGNGYAIDDLVVELPPGAMPDTLITAAEALNGVRVDSVRPHTGLLEAHRELELLDHVAAAEGATARLQVLVNEAPRVLRVSWCTVLRSSGGELHRLAGSPGAPETRANSAPWLPIERAAALDGGADWVPQAWRDMDTTMVAAPLGDTHTAVVLGRPGPEFRPSEVARLGYLAGIVATMLR”, the “soluble on expression in E. coli” value was “soluble”. As to “MGSDKIHHHHHHMAVSSNGGAIKAVIYDCDGVMFDSFEANLAFYQRIMEMMGRPRLSRDNEEQMRILHTYANREVLAHFFPSPGDWEEAVRCAGAIDYRELVPLMIMEEGFREALDTLKGRVGLGVCTNRSTSMDMVLRLFSLDSYFSIVMTASRVTNPKPHPEPLLKVLEHFGIGPREALFVGDSEVDRLSAEAAGVPFVAYKAPLPAAYRMEHHREIIDLLG”, the “soluble on expression in E. coli” value was “not soluble”. For “MDVKHNPKKEVIERSLNATEKAIESIREGDLVRRHTVLELRDMQISMSEDFDQIRGMMHELDHQIDKERAENSKWMNRKMEKAKATADQALASTLMVKDVQLLEKKVNILKDSVIQVNKAFYKYEKDVDMKDLMDQVTDMVHRTEKKEQDALEPHATDEQAIEKAFRGAIEGLYGLKSSNPKVMEEAKLLAGEMRVFRDAAANKNFHSMISKVAPGKSGVSLDSSSSESSFSTSASSSLAKPNGKSSSSAASSISGSH”, the “soluble on expression in E. coli” value is on record as “not soluble”. As for “MGHHHHHHSHMRSVSYVQRVALEFSGSLFPHAICLGDVDNDTLNELVVGDTSGKVSVYKNDDSRPWLTCSCQGMLTCVGVGDVCNKGKNLLVAVSAEGWFHLFDLTPAKVLDASGHHETLIGEEQRPVFKQHIPANTKVMLISDIDGDGCRELVVGYTDRVVRAFRWEELGEGPEHLTGQLVSLKKWMLEGHHDKPGITQGTGIAIVNK”, the “soluble on expression in E. coli” value is “not soluble”. As for “PHANGLEQISGGDTNMFRLAKEQGYETYFYSAQAENEMAILNLIGKKWIDHLIQPTQLGYGNGDNMPDEKLLPLFDKINLQQGKHFIVLHQRGSHAPYGALLQPQDKVFGEADIVDKYDNTIHKTDQMIQTVFEQLQKQPDGNWLFAYTSDHGQYVRQDIYNQGTVQPDSYLVPLVLYSPDKAVQQAANQAFAPCEIAFHQQLSTFLIHTLGYDMPVSGCREGSVTGNLITGDAGSLNIRDGKAEYVYPQ”, the “soluble on expression in E. coli” value is “not soluble”. With “MSSGDMTSEYKDKQGGGAGQPLTKSENNDGKKTLTNGMSRVHRVLTEDEIASGRSTRWTELEIHGRVKNLSPSLWQLTHLSALFLNNNGLTRLPPEIAQLTNLTMLDISNNKLRSLPTELGDMISLCHLYLNNNQLRVLPYELGKLFRIQTLGLQGNPLSPEISKIYHETNGAQKILQFLLDHLTINTHPPPERNWVMIRHADPERPIATFTVLCYNVLCDKYATVNQYSYCPSWALNWEYRKGLIIKEIRTYEADVITLQEVETEQFRTLFQPELKQLGYAGIFEAKSRAKTMGEEERKYVDGCAIFWKVDKFDMDKQYLFEFSSVAMKKASTSENMLNRVMPRDNIGLCAVLKIKESVYANKFLGRMQIPMNDNVVGNPLVVATAHIHWDPEFCDVKLVQSMMLTHEVSRVLEEVSKKYQITQQQVPVLICGDFNSLPDSGVFEYLSKGQITRRHMDLKSFRDDSCLEKFTNSTDKNVISHPLRLDSACDINSIPFTNYTLDFKGMIDYIFATPQSLARLGILGPFDPQWVQSNKILGFPHPHVASDHIPIMAQYAIIPTTHQRQQPLQQAGPAAGVIGGGFPSTPSGAQPFLRC”, the “soluble on expression in E. coli” value is on record as “not soluble”. Consider “MVELVISPSLTVNSDCLDKLKFNRADAAVWTLSDRQGITKSAPLRVSQLFSRSCPRVLPRQPSTAMAAYGQTQYSAGIQQATPYTAYPPPAQAYGIPSFSTSPTGQSPYTYQMHGTTGFYQGGNGLGNAAGFGSVHQDYPSYPGFPQSQYPQYYGSSYNPPYVPASSICPSPLSTSTYVLQEASHNVPNQSSESLAGEYNTHNGPSTPAKEGDTDRPHRASDGKLRGRSKRSSDPSPAGDNEIERVFVWDLDETIIIFHSLLTGTFASRYGKDTTTSVRIGLMMEEMIFNLADTHLFFNDLEDCDQIHVDDVSSDDNGQDLSTYNFSADGFHSSAPGANLCLGSGVHGGVDWMRKLAFRYRRVKEMYNTYKNNVGGLIGTPKRETWLQLRAELEALTDLWLTHSLKALNLINSRPNCVNVLVTTTQLIPALAKVLLYGLGSVFPIENIYSATKTGKESCFERIMQRFGRKAVYVVIGDGVEEEQGAKKHNMPFWRISCHADLEALRHALELEYL”, for which the “soluble on expression in E. coli” value is “not soluble”. As for “MKFQCSSCGLRMDSLHFKQEGLMNPKLTSICDICRTRNLNPEEYSNNAVSTFAQSLLYTFVGADKKQDQLNFIVKNKKARKKYEAFLQDYDGNEIARQQIKRSDFNLAVIKSEDGQNDYVPNQDITFEQNLKKMGLEINFQLNEVDFIDRERIRAKYKYRCQYCGRRGHSVDHKDPVSLSHNNSLDNLTLACAECNRIKSDMPYKLFIQLNDQISDINKKLVKYENALGTLREEFEHRRRYLAAQVHLKGIINDPELNEIRKQNKSLQDAIDSLQSDYDDLRQIRKTYFDTGWKLARIKENNDIILEHHHHHH”, the entry is “not soluble”.

With “MSCDGGKPAPAKLGDEQLAELREIFRSFDQNKDGSLTELELGSLLRSLGLKPSQDQLDTLIQKADRNNNGLVEFSEFVALVEPDLVKCPYTDDQLKAIFRMFDRDGNGYITAAELAHSMAKLGHALTAEELTGMIKEADRDGDGCIDFQEFVQAITSAAFDNAWG”, the “soluble on expression in E. coli” value is listed as “soluble”.
